The values below come from PMC7688639.

Assay [1] has as its target actin filaments (F-actin) polymerised from rabbit muscle actin (rabbit) (UniProt P68135). The assay is described as follows: single-molecule TIRF binding kinetics (dwell times); dual colour with 10 nM Atto-488-cofilin and Alexa-555-utrn (0.05–0.1 nM), 450 ms per frame; events far (>30 nm) from a cofilin binding event.
For assay [2] the target is unchanged. The assay can be described thus: single-molecule TIRF binding kinetics (dwell times); dual colour with 10 nM Atto-488-cofilin and Alexa-555-utrn (0.05–0.1 nM), 450 ms per frame; events near (<30 nm) a cofilin binding event; only τ1 fitted.
The target is the same in assay [3]. The assay is described as follows: single-molecule TIRF binding kinetics (dwell times); as a1, with 1 µM phalloidin added after the filaments had been tethered.
Assay [4] has the same target. The assay can be described thus: single-molecule TIRF binding kinetics (dwell times); as a1, actin filaments co-polymerized with 5 µM biotin-phalloidin.
The target is the same in assay [5]. The assay can be described thus: single-molecule TIRF binding kinetics (dwell times); as a1, in the presence of 200 nM drebrin 1–300.
Assay [6] shares this target. The assay can be described thus: single-molecule TIRF binding kinetics (on-rate); tethered actin filaments; frequency of binding events for a range of concentrations of actin-binding domain, linear regression of frequency against concentration.
For assay [7] the target is unchanged. The assay can be described thus: single-molecule TIRF binding kinetics (dwell times); actin filaments tethered to a PEG/biotin-PEG coverslip by streptavidin and biotin-phalloidin; labelled binding domain in solution at ~0.05–0.1 nM; 25 mM imidazole, 25 mM KCl, 4 mM MgCl2, 1 mM EGTA, 1 mM DTT, pH 7.4, 10 µg/mL beta casein; double exponential fit of the CDF, bleaching corrected.

The target is the same in assay [8]. The assay can be described thus: single-molecule TIRF binding kinetics (dwell times); as a1, with 1 µM jasplakinolide added after the filaments had been tethered.
The target is the same in assay [9]. The assay is described as follows: single-molecule TIRF binding kinetics (dwell times); as a1, in the presence of 200 nM HMM.

As a reminder, the kon is the second-order rate constant of association. On to “utrophin actin-binding domain Δ-nterm Q33A T36A (domain or fragment)”, for which the dwell time τ1 (first timescale) is 0.44 s in assay [1]; 0.57 s in assay [2]; 0.49 s in [3]; 0.41 s in [4]; 0.34 s in assay [5]; 0.42 s in assay [7]. Further, the dwell time τ1 (first timescale) came to 0.47 s in assay [8] and 0.4 s in assay [9]. For the same substance, the kon in [6] worked out at 2.1e+06 M⁻¹ s⁻¹. Further, the average dwell time (τav) in [7] is 0.8 s. Moreover, the ratio of the two dwell-time scales (τ2/τ1) in assay [7] turned out to be 9.6.
